In article PMC4955526 (2017):
Read-outs that look alike come from different tables or passages of the source.

B2: BMP-4 (protein)
chain: SPKHHSQRARKKNKNCRRHSLYVDFSDVGWNDWIVAPPGYQAFYCHGDCPFPLADHLNSTNHAIVQTLVNSVNSSIPKACCVPTELSAISMLYLDEYDKVVLKNYQEMVVEGCGCR

Key:
BMP-4 [1] = target: B2; experiment: SPR competition vs Cerberus-Fc
BMP-4 [2] = target: B2; experiment: SPR competition vs ActRIIA-Fc
BMP-4 [3] = target: B2; experiment: SPR competition vs Cerberus-Fc
BMP-4 [4] = target: B2; experiment: SPR competition vs ActRIIA-Fc
BMP-4 [5] = target: B2; experiment: SPR competition vs Cerberus-Fc
BMP-4 [6] = target: B2; experiment: SPR competition vs BMPRII-Fc
BMP-4 [7] = target: B2; experiment: SPR competition vs Cerberus-Fc
BMP-4 [8] = target: B2; experiment: SPR competition vs BMPRII-Fc
BMP-4 [9] = target: B2; experiment: SPR competition vs ALK3-Fc
BMP-4 [10] = target: B2; experiment: SPR competition vs ActRIIA-Fc
BMP-4 [11] = target: B2; experiment: SPR competition vs ActRIIA-Fc
BMP-4 [12] = target: B2; experiment: SPR competition vs BMPRII-Fc
BMP-4 [13] = target: B2; experiment: SPR competition vs ALK3-Fc
BMP-4 [14] = target: B2; experiment: SPR competition vs ALK3-Fc
BMP-4 [15] = target: B2; experiment: SPR competition vs BMPRII-Fc
BMP-4 [16] = target: B2; experiment: SPR competition vs ActRIIA-Fc
BMP-4 [17] = target: B2; experiment: SPR competition vs ALK3-Fc
BMPRII-Fc ECD = target: T1, BMPRII-Fc ECD (Homo sapiens, UniProt Q13873); experiment: SPR
T1 chain: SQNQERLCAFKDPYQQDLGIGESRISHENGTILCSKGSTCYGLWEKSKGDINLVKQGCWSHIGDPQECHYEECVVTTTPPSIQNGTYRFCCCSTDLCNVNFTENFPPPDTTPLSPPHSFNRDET

Cerberus-Fc [18] = target: T2, Cerberus-Fc (Homo sapiens, UniProt O95813); experiment: SPR
T2 chain: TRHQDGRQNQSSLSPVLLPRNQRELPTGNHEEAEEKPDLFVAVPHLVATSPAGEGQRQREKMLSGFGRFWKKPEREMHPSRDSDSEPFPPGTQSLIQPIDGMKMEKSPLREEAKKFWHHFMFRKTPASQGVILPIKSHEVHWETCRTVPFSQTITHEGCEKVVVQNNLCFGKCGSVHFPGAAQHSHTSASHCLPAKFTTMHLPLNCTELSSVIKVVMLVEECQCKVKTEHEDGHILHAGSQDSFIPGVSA

ActRIIA-Fc ECD [19] = target: T3, ActRIIA-Fc ECD (Homo sapiens, UniProt P27037); experiment: SPR
Cerberus-Fc [20] = target: T2, Cerberus-Fc; experiment: SPR
ActRIIA-Fc ECD [21] = target: T3, ActRIIA-Fc ECD; experiment: SPR; remark: listed apart in the source
ALK3-Fc ECD = target: T4, ALK3-Fc ECD (Homo sapiens, UniProt P36894); experiment: SPR
T4 chain: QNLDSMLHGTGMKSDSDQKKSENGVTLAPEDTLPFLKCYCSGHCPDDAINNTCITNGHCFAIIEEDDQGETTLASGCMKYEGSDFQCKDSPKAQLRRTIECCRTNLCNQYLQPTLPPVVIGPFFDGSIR

T3 sequence (P27037 20-135): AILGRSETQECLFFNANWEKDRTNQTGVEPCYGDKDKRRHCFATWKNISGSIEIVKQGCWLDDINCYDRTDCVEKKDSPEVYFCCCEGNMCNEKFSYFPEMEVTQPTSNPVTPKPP

B1: Cerberus (protein)
chain: TRHQDGRQNQSSLSPVLLPRNQRELPTGNHEEAEEKPDLFVAVPHLVATSPAGEGQRQREKMLSGFGRFWKKPEREMHPSRDSDSEPFPPGTQSLIQPIDGMKMEKSPLREEAKKFWHHFMFRKTPASQGVILPIKSHEVHWETCRTVPFSQTITHEGCEKVVVQNNLCFGKCGSVHFPGAAQHSHTSASHCLPAKFTTMHLPLNCTELSSVIKVVMLVEECQCKVKTEHEDGHILHAGSQDSFIPGVSA
IC50 (BMP-4 [1]): 99.7 nM | IC50 (BMP-4 [2]): 56 nM | IC50 (BMP-4 [3]): 57.6 nM | IC50 (BMP-4 [4]): 266 nM | IC50 (BMP-4 [5]): 56.7 nM | IC50 (BMP-4 [6]): 153 nM | IC50 (BMP-4 [7]): 46.6 nM | IC50 (BMP-4 [8]): 166 nM | IC50 (BMP-4 [9]): 245 nM | IC50 (BMP-4 [10]): 239 nM | IC50 (BMP-4 [11]): 58 nM | IC50 (BMP-4 [12]): 132 nM | IC50 (BMP-4 [13]): 134 nM | IC50 (BMP-4 [14]): 303 nM | IC50 (BMP-4 [15]): 138 nM | IC50 (BMP-4 [16]): 305 nM | IC50 (BMP-4 [17]): 289 nM

B2
Kd (BMPRII-Fc ECD): 8.13 nM | Kd (Cerberus-Fc [18]): 2.24 nM | Kd (ActRIIA-Fc ECD [19]): 3.26 nM | Kd (Cerberus-Fc [20]): 2.73 nM | Kd (ActRIIA-Fc ECD [21]): 2.85 nM | Kd (ALK3-Fc ECD): 0.193 nM
